B1: ABL2(ARG) (protein)
chain: MGQQVGRVGEAPGLQQPQPRGIRGSSAARPSGRRRDPAGRTTETGFNIFTQHDHFASCVEDGFEGDKTGGSSPEALHRPYGCDVEPQALNEAIRWSSKENLLGATESDPNLFVALYDFVASGDNTLSITKGEKLRVLGYNQNGEWSEVRSKNGQGWVPSNYITPVNSLEKHSWYHGPVSRSAAEYLLSSLINGSFLVRESESSPGQLSISLRYEGRVYHYRINTTADGKVYVTAESRFSTLAELVHHHSTVADGLVTTLHYPAPKCNKPTVYGVSPIHDKWEMERTDITMKHKLGGGQYGEVYVGVWKKYSLTVAVKTLKEDTMEVEEFLKEAAVMKEIKHPNLVQLLGVCTLEPPFYIVTEYMPYGNLLDYLRECNREEVTAVVLLYMATQISSAMEYLEKKNFIHRDLAARNCLVGENHVVKVADFGLSRLMTGDTYTAHAGAKFPIKWTAPESLAYNTFSIKSDVWAFGVLLWEIATYGMSPYPGIDLSQVYDLLEKGYRMEQPEGCPPKVYELMRACWKWSPADRPSFAETHQAFETMFHDSSISEEVAEELGRAASSSSVVPYLPRLPILPSKTRTLKKQVENKENIEGAQDATENSASSLAPGFIRGAQASSGSPALPRKQRDKSPSSLLEDAKETCFTRDRKGGFFSSFMKKRNAPTPPKRSSSFREMENQPHKKYELTGNFSSVASLQHADGFSFTPAQQEANLVPPKCYGGSFAQRNLCNDDGGGGGGSGTAGGGWSGITGFFTPRLIKKTLGLRAGKPTASDDTSKPFPRSNSTSSMSSGLPEQDRMAMTLPRNCQRSKLQLERTVSTSSQPEENVDRANDMLPKKSEESAAPSRERPKAKLLPRGATALPLRTPSGDLAITEKDPPGVGVAGVAAAPKGKEKNGGARLGMAGVPEDGEQPGWPSPAKAAPVLPTTHNHKVPVLISPTLKHTPADVQLIGTDSQGNKFKLLSEHQVTSSGDKDRPRRVKPKCAPPPPPVMRLLQHPSICSDPTEEPTALTAGQSTSETQEGGKKAALGAVPISGKAGRPVMPPPQVPLPTSSISPAKMANGTAGTKVALRKTKQAAEKISADKISKEALLECADLLSSALTEPVPNSQLVDTGHQLLDYCSGYVDCIPQTRNKFAFREAVSKLELSLQELQVSSAAAGVPGTNPVLNNLLSCVQEISDVVQR
modifications: left off: small tags and cut ends
B2: BMX (protein)
chain: MDTKSILEELLLKRSQQKKKMSPNNYKERLFVLTKTNLSYYEYDKMKRGSRKGSIEIKKIRCVEKVNLEEQTPVERQYPFQIVYKDGLLYVYASNEESRSQWLKALQKEIRGNPHLLVKYHSGFFVDGKFLCCQQSCKAAPGCTLWEAYANLHTAVNEEKHRVPTFPDRVLKIPRAVPVLKMDAPSSSTTLAQYDNESKKNYGSQPPSSSTSLAQYDSNSKKIYGSQPNFNMQYIPREDFPDWWQVRKLKSSSSSEDVASSNQKERNVNHTTSKISWEFPESSSSEEEENLDDYDWFAGNISRSQSEQLLRQKGKEGAFMVRNSSQVGMYTVSLFSKAVNDKKGTVKHYHVHTNAENKLYLAENYCFDSIPKLIHYHQHNSAGMITRLRHPVSTKANKVPDSVSLGNGIWELKREEITLLKELGSGQFGVVQLGKWKGQYDVAVKMIKEGSMSEDEFFQEAQTMMKLSHPKLVKFYGVCSKEYPIYIVTEYISNGCLLNYLRSHGKGLEPSQLLEMCYDVCEGMAFLESHQFIHRDLAARNCLVDRDLCVKVSDFGMTRYVLDDQYVSSVGTKFPVKWSAPEVFHYFKYSSKSDVWAFGILMWEVFSLGKQPYDLYDNSQVVLKVSQGHRLYRPHLASDTIYQIMYSCWHELPEKRPTFQQLLSSIEPLREKDKH
modifications: left off: small tags and cut ends

Test system: kinases of Table 6 on Myelin Basic Protein (MBP)
Experiment: Kinase assay using MBP substrate, ProQ Diamond stain (Table 6)
Type: biochemical
Conditions: kinase printed on MBP-coated slide; 20 uM ATP, 30° C.; ProQ Diamond Microarray Stain; graded Strong/Weak/Negative
Summary of the method: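 Bovine dephosphorylated MBP coated on aldehyde- or epoxy-glass slides, kinases printed on top; reaction buffer pH 7.5 with 4 mM MgCl2, 20 uM ATP, 5% DMSO, ± inhibitor, at 30° C. Phosphorylation detected by ProQ Diamond stain, 30 min in dark.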

| Molecule | MBP Kinase Activity |
| --- | --- |
| B1 | Weak |
| B2 | Strong |

Reference: patent US20090099029A1, “Methods and substrates for conducting assays” (Invitrogen Corporation, priority 2005, published 2009)
